B1: 77A (VR11851) (antibody, V domains shown)
VH: QSVEESGGRLVTPGTPLTLTCTVSGFSLSSYAMSWVRQAPGKGLEWIGIISSSGTTYYASWAKGRFTISKTSTTVDLKITSPTTEDTATYFCARVDYYSSGWGGLWGPGTLVTVSS
VL: AVEMTQTPASMSAAVGGTVTIKCQASEDIYSNLAWYQQKPGQPPKLLIYGASTLASGVPSRFKGSGSGTEYTLTISGVQCDDAATYYCQCTYDTSSYGNTFGGGTEMVVE
notes: also called OX77a; antibody 77a
B2: 111 (VR12113) (antibody, V domains shown)
VH: QSVEESGGRLVTPGTPLTLTCTASGFSLSTYAMSWVRQAPGKGLEWIGIISSSGSTYYASWAKGRFTISKTSTTVDLKITSPTTEDTATYFCARETWYWLDLWGQGTLVTVSS
VL: AVEMTQTPASVSAAVGGTVTINCQASEDIYSNLAWYQQKPGQPPKLLIYGASTLASGVPSRFKGSGSGTEYTLTISGVQCDDAATYYCQCAYDSSSYGTPFGGGTEVVVK
notes: also called OX111
B3: 110 (VR12112) (antibody, V domains shown)
VH: QSVEESGGRLVTPGTPLTLTCTVSGFSLSSYAMIWVRQAPGKGLEWIGIINSSDNTHYATWAKGRFTISKTSTTVDLKITSPTTEDTATYFCARDPYDYGYGWYFDLWGPGTLVTVSS
VL: AQVLTQTPSPVSAAVGGTVTINCQASQSVFNNKNLAWYQQKPGQPPKLLIYKASTLASGVSSRFKGSGSGTQFALTISGVQCDDAATYYCQGEFSCSSTDCVTFGGGTEVVVK
notes: also called OX110; antibody 110
B4: 116 (VR12117) (antibody, V domains shown)
VH: QSVEESGGRLVTPGTPLTLTCTVSGFSLSNYAMSWVRQAPGKGLEWIGIIYTTGFTYYASWVKGRFTISKTSTTVDLKITSPTTEDTATYFCARGLATYVSPPTRLDLWGQGTLVTVSS
VL: AQVLTQTPSPVSAAVGGTVTINCQASQSIYNSKNLAWYQQKPGQPPKLLIYSASTLASGVPSRFKGSGSGTQFTLTISDLECDDAATYYCQGEFSCSSVDCATFGGGTEVVVK
notes: also called OX116

How the values were obtained:
[1] = target: T1, human CD1a protein (pool B) (human, UniProt P06126 18-295, limits assumed); assay: ELISA, 3.16 µg/ml antibody
T1 construct: Recombinant protein of the ELISA (coated) and the Biacore T200 titration; whole entry named; also called human CD1a pool B; full length CD1a
Procedure: (§1) CD1a-specific antibodies were identified by ELISA. […] 20 μl/well of peroxidase-conjugated goat anti-species IgG Fc-specific F(ab′)2 fragment (Jackson ImmunoResearch), diluted 1:5000 in block buffer was added and incubated at room temperature for 1 hour, followed by washing with wash buffer.
(§2) The antibodies were titrated through a dilution series and compared to a control rabbit IgG antibody.

[2] = target: T1, human CD1a protein (pool B); assay: ELISA, 10 µg/ml antibody
Procedure: as §1, §2

[3] = target: T1, human CD1a protein (pool B); assay: ELISA, 31.6 µg/ml antibody
Procedure: as §1, §2

[4] = target: T2, human CD1c expressed on HEK-293 cells (human, UniProt P29017 18-333; P61769 21-119); assay: flow cytometry, HEK-293 cells, 0.0316 µg/ml antibody
T2 construct: also called HEK - CD1c
Procedure: (§3) Binding to proteins expressed on HEK, C1R and MOLT4 cell lines was assessed. […] The C1R-CD1a, C1R-empty vector and MOLT4 cell lines were washed in 1×PBS on the day required. All cell lines were counted and resuspended in 1×PBS and then stained for 30 minutes at 37° C. using the DiI or DiO cellular stains (Invitrogen). Cells were washed with flow cytometry buffer (1% bovine serum albumin, 2 mM EDTA and 0.1% sodium azide in PBS) before mixing 2 DiI-stained and DiO-stained populations together. The cells (20 μl/well) were then added to dilutions of antibody sample (B cell culture supernatant, TAP supernatant, clone supernatant, purified antibody solution) (20 μl/well) and incubated for 1 hour at 4° C. in a flow cytometry assay plate, before being washed with flow cytometry buffer. 10 μl/well of Alexafluor647-conjugated goat anti-species IgG Fc-specific F(ab′)2 fragment (Jackson ImmunoResearch), diluted 1:2500 in flow cytometry buffer, was added and incubated at 4° C. for 30 minutes, followed by washing with wash buffer. The fluorescence intensity was then measured on an iQue screener PLUS.
(§4) HEK-293 cells were transiently transfected with human CD1a, CD1b, CD1c or CD1d and co-transfected with human β2M.

[5] = target: T3, human CD1b expressed on HEK-293 cells (human, UniProt P29016 18-333; P61769 21-119); assay: as above
T3 construct: also called HEK - CD1b
Procedure: as §3, §4

[6] = target: T4, human CD1d expressed on HEK-293 cells (human, UniProt P15813 20-335; P61769 21-119); assay: as above
T4 construct: also called HEK - CD1d
Procedure: as §3, §4

[7] = target: T5, human CD1a expressed on cells (human, UniProt P06126 17-327; P61769 21-119); assay: as above
T5 construct: also called HEK - CD1a; C1R - CD1a
Procedure: as §3, §4

[8] = target: T6, chimeric CD1a pool B protein [human CD1a lipid binding domain, mouse CD1d Ig domain] (human; mouse, UniProt P06126 18-201; P11609 205-297, limits assumed); assay: ELISA, 1 µg/ml antibody
Procedure: as §1
(§5) The antibodies were titrated through a dilution series and compared to a control rabbit IgG antibody. […] Data shown for purified antibodies.

[9] = target: T3, human CD1b expressed on HEK-293 cells; assay: flow cytometry, HEK-293 cells, 100 µg/ml antibody
Procedure: as §3, §4

[10] = target: T2, human CD1c expressed on HEK-293 cells; assay: flow cytometry, HEK-293 cells, 10 µg/ml antibody
Procedure: as §3, §4

[11] = target: T3, human CD1b expressed on HEK-293 cells; assay: flow cytometry, HEK-293 cells, 10 µg/ml antibody
Procedure: as §3, §4

[12] = target: T4, human CD1d expressed on HEK-293 cells; assay: flow cytometry, HEK-293 cells, 10 µg/ml antibody
Procedure: as §3, §4

[13] = target: T5, human CD1a expressed on cells; assay: flow cytometry, HEK-293 cells, 10 µg/ml antibody
Procedure: as §3, §4

[14] = target: T4, human CD1d expressed on HEK-293 cells; assay: flow cytometry, HEK-293 cells, 0.1 µg/ml antibody
Procedure: as §3, §4

[15] = target: T5, human CD1a expressed on cells; assay: flow cytometry, HEK-293 cells, 0.1 µg/ml antibody
Procedure: as §3, §4

[16] = target: T6, chimeric CD1a pool B protein [human …; assay: ELISA, 31.6 µg/ml antibody
Procedure: as §1, §5

[17] = target: T6, chimeric CD1a pool B protein [human …; assay: ELISA, 10 µg/ml antibody
Procedure: as §1, §5

[18] = target: T1, human CD1a protein (pool B); assay: ELISA, 0.0316 µg/ml antibody
Procedure: as §1, §2

[19] = target: T2, human CD1c expressed on HEK-293 cells; assay: flow cytometry, HEK-293 cells, 1 µg/ml antibody
Procedure: as §3, §4

[20] = target: T3, human CD1b expressed on HEK-293 cells; assay: flow cytometry, HEK-293 cells, 1 µg/ml antibody
Procedure: as §3, §4

[21] = target: T4, human CD1d expressed on HEK-293 cells; assay: flow cytometry, HEK-293 cells, 1 µg/ml antibody
Procedure: as §3, §4

[22] = target: T5, human CD1a expressed on cells; assay: flow cytometry, HEK-293 cells, 1 µg/ml antibody
Procedure: as §3, §4

[23] = target: T7, Cynomolgus monkey CD1a protein (Cynomolgus monkey); assay: ELISA, 0.01 µg/ml antibody
T7 chain: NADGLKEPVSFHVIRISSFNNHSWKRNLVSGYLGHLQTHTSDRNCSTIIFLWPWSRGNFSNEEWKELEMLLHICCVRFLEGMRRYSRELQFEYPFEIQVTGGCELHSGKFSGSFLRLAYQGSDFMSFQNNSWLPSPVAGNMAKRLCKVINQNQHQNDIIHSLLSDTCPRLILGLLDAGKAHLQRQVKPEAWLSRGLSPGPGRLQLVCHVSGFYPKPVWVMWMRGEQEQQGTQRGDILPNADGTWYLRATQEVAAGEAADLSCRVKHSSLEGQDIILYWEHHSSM

[24] = target: T5, human CD1a expressed on cells; assay: flow cytometry, C1R cells, 0.316 µg/ml antibody
Procedure: as §3
Binding was quantified as fold change in fluorescence intensity geomean over background assessed by flow cytometry.

[25] = target: Chinese variant CD1a protein (human) (UniProt P06126); assay: ELISA, 0.1 µg/ml antibody
Chinese variant CD1a protein (human), sequence (P06126 18-295, change not shown): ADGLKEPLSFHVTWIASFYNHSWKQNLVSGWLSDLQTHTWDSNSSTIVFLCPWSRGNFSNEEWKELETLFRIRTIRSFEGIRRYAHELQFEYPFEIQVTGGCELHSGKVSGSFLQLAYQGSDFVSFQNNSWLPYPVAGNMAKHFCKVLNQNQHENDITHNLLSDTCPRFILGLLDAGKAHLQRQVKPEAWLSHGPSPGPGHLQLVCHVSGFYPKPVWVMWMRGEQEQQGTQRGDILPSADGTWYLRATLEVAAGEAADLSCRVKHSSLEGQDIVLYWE

T6 sequence (P06126 other isoform, or with tags, fused parts or gaps mutant limits assumed): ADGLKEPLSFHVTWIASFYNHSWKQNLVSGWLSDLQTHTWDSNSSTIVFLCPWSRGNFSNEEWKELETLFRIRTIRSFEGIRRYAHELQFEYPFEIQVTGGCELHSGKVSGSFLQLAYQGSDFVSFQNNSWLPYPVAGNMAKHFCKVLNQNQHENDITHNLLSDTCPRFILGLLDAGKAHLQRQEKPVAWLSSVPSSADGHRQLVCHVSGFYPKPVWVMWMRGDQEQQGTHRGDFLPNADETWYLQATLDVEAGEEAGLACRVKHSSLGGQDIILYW
T1 sequence (P06126 18-295 limits assumed): as the sequence (P06126 18-295, change not shown) above

Binder	Optical Density (OD) [1]	Optical Density (OD) [2]	Optical Density (OD) [3]	Fluorescence Intensity Geomean (normalized to background) [4]	Fluorescence Intensity Geomean (normalized to background) [5]	Fluorescence Intensity Geomean (normalized to background) [6]	Fluorescence Intensity Geomean (normalized to background) [7]	Optical Density (OD) [8]	Fluorescence Intensity Geomean (normalized to background) [9]	Fluorescence Intensity Geomean (normalized to background) [10]	Fluorescence Intensity Geomean (normalized to background) [11]	Fluorescence Intensity Geomean (normalized to background) [12]	Fluorescence Intensity Geomean (normalized to background) [13]	Fluorescence Intensity Geomean (normalized to background) [14]	Fluorescence Intensity Geomean (normalized to background) [15]	Optical Density (OD) [16]	Optical Density (OD) [17]	Optical Density (OD) [18]	Fluorescence Intensity Geomean (normalized to background) [19]	Fluorescence Intensity Geomean (normalized to background) [20]	further results
B1	1.33 OD	1.34 OD	1.28 OD	1 fold over background	0.9 fold over background	0.9 fold over background	24.9 fold over background	1.26 OD	1 fold over background	0.9 fold over background	1.1 fold over background	1 fold over background	13.7 fold over background	0.9 fold over background	43.8 fold over background	1.33 OD	1.31 OD	1.25 OD	1 fold over background	1.1 fold over background	Fluorescence Intensity Geomean (normalized to background) [21]: 1 fold over background; Fluorescence Intensity Geomean (normalized to background) [22]: 41.9 fold over background; Optical Density (OD) [23]: 0.1 OD; Fluorescence Intensity Geomean (normalized to background) [24]: 19 fold over background; Optical Density (OD) [25]: 1.05 OD
B2	1.13 OD	1.12 OD	1.07 OD	1 fold over background	1 fold over background	1 fold over background	11.1 fold over background	1.36 OD	1.1 fold over background	1 fold over background	1.1 fold over background	1.1 fold over background	11.1 fold over background	1 fold over background	23.1 fold over background	1.35 OD	1.4 OD	1.1 OD	1.1 fold over background	1 fold over background	Fluorescence Intensity Geomean (normalized to background) [21]: 1.1 fold over background; Fluorescence Intensity Geomean (normalized to background) [22]: 42 fold over background; Optical Density (OD) [23]: 0.48 OD; Fluorescence Intensity Geomean (normalized to background) [24]: 28.8 fold over background; Optical Density (OD) [25]: 1.52 OD
B3	1.27 OD	1.28 OD	1.24 OD	1 fold over background	1 fold over background	1 fold over background	8.9 fold over background	1.45 OD	1.1 fold over background	1 fold over background	1.1 fold over background	1 fold over background	15.7 fold over background	1 fold over background	20.2 fold over background	1.4 OD	1.46 OD	0.81 OD	1.1 fold over background	1.1 fold over background	Fluorescence Intensity Geomean (normalized to background) [21]: 1.1 fold over background; Fluorescence Intensity Geomean (normalized to background) [22]: 49.2 fold over background; Optical Density (OD) [23]: 0.22 OD; Fluorescence Intensity Geomean (normalized to background) [24]: 29.7 fold over background; Optical Density (OD) [25]: 1.57 OD
B4	1.15 OD	1.18 OD	1.16 OD	1 fold over background	1 fold over background	1 fold over background	15.7 fold over background	1.42 OD	1.1 fold over background	1.1 fold over background	1 fold over background	1.1 fold over background	12.6 fold over background	1.1 fold over background	26.7 fold over background	1.35 OD	1.4 OD	0.95 OD	1.1 fold over background	1.1 fold over background	Fluorescence Intensity Geomean (normalized to background) [21]: 1 fold over background; Fluorescence Intensity Geomean (normalized to background) [22]: 48.2 fold over background; Optical Density (OD) [23]: 0.07 OD; Fluorescence Intensity Geomean (normalized to background) [24]: 27.5 fold over background; Optical Density (OD) [25]: 1.53 OD

Reference: US20250289893A1 (OXFORD UNIVERSITY INNOVATION, published 2025)
